From patent US20250115641A1 (H LEE MOFFITT CANCER CENTER AND RESEARCH INSTITUTE, published 2025) come the findings set out here.

Assay [1] deals with T1, human NLRP3^PYD (residues 3-110, C-terminal 6 x histidine) (human, UniProt Q96P20 3-110).
T1 construct: range 3-110; also called His6-NLRP3^PYD
Briefly: fluorescence polarization binding assay, FITC-labelled peptide. A general note: Fluorescence polarisation rises when a labelled molecule tumbles more slowly, as on binding a larger partner.

Assay [2] has as its target T2, human N-terminally GST tagged ASC^PYD (human, UniProt Q9ULZ3 1-106).
T2 construct: range 1-106; Expressed in E. coli from pGEX-4T1; also called GST-ASC^PYD; not shown: N-terminal GST (glutathione S-transferase) tag of the pGEX-4T1 vector
Described as above.

Bridge positions count the residues as written; N and C are the ends. Square brackets hold non-standard residues; d marks the D form. Primed or numbered codes have the meaning given here. S5 = C=CCCC[C@](C)(N)C(=O)O; Nle = CCCC[C@H](N)C(=O)O; FITC′ = fluorescein; βAla = NCCC(=O)O

T1 sequence (Q96P20 other isoform, or with tags, fused parts or gaps limits assumed): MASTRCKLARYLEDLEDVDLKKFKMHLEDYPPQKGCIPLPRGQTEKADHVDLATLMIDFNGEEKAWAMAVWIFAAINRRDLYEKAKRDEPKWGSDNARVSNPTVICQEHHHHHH
T2 sequence (Q9ULZ3 1-106): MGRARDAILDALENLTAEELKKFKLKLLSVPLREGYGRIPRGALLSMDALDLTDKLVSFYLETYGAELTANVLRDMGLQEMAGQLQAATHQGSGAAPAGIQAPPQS

In the case of {FITC′}-[βAla]Q[S5]LRK[S5]QWKLWTA-NH2 (staple 3-7, also called peptide 63) [fSAH-POP1-12], in assay [1], the “fold increase of binding affinity against fSAH-POP1-10” value worked out at 10 fold.

B1: fSAH-POP1-5 (peptide)
peptide: AQXLKKXKXKLGTA
modifications: N-terminal fluorescein (FITC) on β-alanine; S5 = (S)-2-(4-pentenyl)alanine residues covalently linked (hydrocarbon staple); made on Rink amide resin
notes: also called peptide 56
On to B1, for which the “fold change of KD against fSAH-POP1-4 (higher)” value in assay [1] is 1.5 fold.

In the case of {FITC′}-[βAla]Q[S5]LRR[S5]QWKLWTS-NH2 (staple 3-7, also called peptide 67) [fSAH-POP1-16], the binding result in assay [2] is on record as “binds”.

B2: fSAH-POP1-6 (peptide)
peptide: XQXLKKXKXKLWTA
modifications: N-terminal fluorescein (FITC) on β-alanine; S5 = (S)-2-(4-pentenyl)alanine residues covalently linked (hydrocarbon staple); made on Rink amide resin
notes: also called peptide 57
Regarding B2, the “fold change of KD against fSAH-POP1-5 (lower)” value in assay [1] turned out to be 2 fold.

B3: fSAH-POP1-4 (peptide)
peptide: AEXLKKXKXKLGTV
modifications: N-terminal fluorescein (FITC) on β-alanine; S5 = (S)-2-(4-pentenyl)alanine residues covalently linked (hydrocarbon staple); made on Rink amide resin
notes: FITC-labelled stapled peptide; also called peptide 54
Consider B3, for which the binding result in assay [1] is given as “binds”.

With {FITC′}-[βAla]EELKKFK[Nle]KLGTV-NH2 (also called peptide 55) [fPOP1-H2], the binding result in assay [1] is “binds”.
